Target: the molecule itself
Test: dynamic light scattering; Malvern Zetasizer Nano ZS, hsp60 (wild type or mutant) without nucleotide (APO); percent volume

Protein	stoichiometry N
human mitochondrial hsp60 D3G mutant (MitCHAP-60) (natural protein, UniProt P10809 27-573, looked up, human mitochondrial hsp60 (HspD1), mature protein without the mitochondrial signal peptide, disease mutation D3G, cloned into pET-22b; numbers count on: the mature protein; Mutation found in patients with MitCHAP-60; also called D3G-hsp60; source: E. coli BL21 (DE3), purified (ammonium sulfate, anion-exchange, size-exclusion chromatography)) AKGVKFGADARALMLQGVDLLADAVAVTMGPKGRTVIIEQSWGSPKVTKDGVTVAKSIDLKDKYKNIGAKLVQDVANNTNEEAGDGTTTATVLARSIAKEGFEKISKGANPVEIRRGVMLAVDAVIAELKKQSKPVTTPEEIAQVATISANGDKEIGNIISDAMKKVGRKGVITVKDGKTLNDELEIIEGMKFDRGYISPYFINTSKGQKCEFQDAYVLLSEKKISSIQSIVPALEIANAHRKPLVIIAEDVDGEALSTLVLNRLKVGLQVVAVKAPGFGDNRKNQLKDMAIATGGAVFGEEGLTLNLEDVQPHDLGKVGEVIVTKDDAMLLKGKGDKAQIEKRIQEIIEQLDVTTSEYEKEKLNERLAKLSDGVAVLKVGGTSDVEVNEKKDRVTDALNATRAAVEEGIVLGGGCALLRCIPALDSLTPANEDQKIGIEIIKRTLKIPAMTIAKNAGVEGSLIVEKIMQSSSEVGYDAMAGDFVNMVEKGIIDPTKVVRTALLDAAGVASLLTTAEVVVTEIPKEEKDPGMGAMGGMGGGMGGGMF	14
human mitochondrial hsp60 V72I mutant (SPG13) (natural protein, UniProt P10809 27-573, looked up, human mitochondrial hsp60 (HspD1), mature protein without the mitochondrial signal peptide, disease mutation V72I, cloned into pET-22b; numbers count on: the mature protein; Mutation linked to SPG13; source: E. coli BL21 (DE3), purified (ammonium sulfate, anion-exchange, size-exclusion chromatography)) AKDVKFGADARALMLQGVDLLADAVAVTMGPKGRTVIIEQSWGSPKVTKDGVTVAKSIDLKDKYKNIGAKLIQDVANNTNEEAGDGTTTATVLARSIAKEGFEKISKGANPVEIRRGVMLAVDAVIAELKKQSKPVTTPEEIAQVATISANGDKEIGNIISDAMKKVGRKGVITVKDGKTLNDELEIIEGMKFDRGYISPYFINTSKGQKCEFQDAYVLLSEKKISSIQSIVPALEIANAHRKPLVIIAEDVDGEALSTLVLNRLKVGLQVVAVKAPGFGDNRKNQLKDMAIATGGAVFGEEGLTLNLEDVQPHDLGKVGEVIVTKDDAMLLKGKGDKAQIEKRIQEIIEQLDVTTSEYEKEKLNERLAKLSDGVAVLKVGGTSDVEVNEKKDRVTDALNATRAAVEEGIVLGGGCALLRCIPALDSLTPANEDQKIGIEIIKRTLKIPAMTIAKNAGVEGSLIVEKIMQSSSEVGYDAMAGDFVNMVEKGIIDPTKVVRTALLDAAGVASLLTTAEVVVTEIPKEEKDPGMGAMGGMGGGMGGGMF	14

Reference: PMC6707239 (Scientific Reports, 2019)
